We go through one molecule from patent US20260201032A1 (UNIVERSITAT DE BARCELONA, published 2026).

The target of this test is T1, CD229 hDI/DIII/DIV mDII (human; mouse, UniProt Q9HBG7 48-158; Q01965 159-249; Q9HBG7 251-655, limits assumed).
T1 construct: domain: DI;domain: DII;domain: DIII/DIV; Expressed on transiently transfected COS cells; also called chimeric mouse human molecule where the second Ig domain of Ly9 was substituted the corresponding mouse domain
T1 sequence (looked up): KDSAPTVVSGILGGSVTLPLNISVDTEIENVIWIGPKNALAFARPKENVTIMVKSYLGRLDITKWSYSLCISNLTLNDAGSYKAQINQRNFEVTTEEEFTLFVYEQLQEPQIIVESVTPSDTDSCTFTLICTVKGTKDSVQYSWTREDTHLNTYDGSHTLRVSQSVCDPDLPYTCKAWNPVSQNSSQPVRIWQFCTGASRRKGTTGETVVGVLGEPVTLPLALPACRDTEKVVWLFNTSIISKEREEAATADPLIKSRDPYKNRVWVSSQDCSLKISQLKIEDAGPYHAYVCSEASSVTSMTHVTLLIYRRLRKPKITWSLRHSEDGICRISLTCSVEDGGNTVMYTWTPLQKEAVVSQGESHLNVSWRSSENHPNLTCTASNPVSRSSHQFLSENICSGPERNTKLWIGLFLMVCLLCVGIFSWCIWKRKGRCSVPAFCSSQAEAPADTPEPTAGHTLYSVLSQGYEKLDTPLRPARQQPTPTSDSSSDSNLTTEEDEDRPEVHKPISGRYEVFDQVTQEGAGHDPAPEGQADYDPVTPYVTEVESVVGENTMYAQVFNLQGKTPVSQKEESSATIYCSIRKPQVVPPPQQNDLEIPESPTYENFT
The test can be described thus: flow cytometry on transiently transfected COS cells. An excerpt:
The mapping to the first or second domain was done as described in Romero et al 2005. Three different human Ly9 constructs were used: full-length human Ly9, a Ly9 isoform that […] and a chimeric mouse human molecule where the second Ig domain of Ly9 was substituted the corresponding mouse domain. The transfected cells were stained with different anti-human antibodies using flow cytometry.
^aCOS cells were transiently transfected with chimeric human (h)/mouse (m) constructs or the isoform lacking the first V-like Ig domain (CD229 ΔDI) described in Materials and Methods. CD229 mAbs were assayed by flow cytometry: +, Detection of protein expression, −, nondetection of protein expression. ^bDomain recognized by the mAb.
(In flow cytometry, cells or beads pass a laser one at a time.)

B1: HLy9.1.84 (antibody, V domains shown)
VH: QMQLQESGPELVKPGASVKISCKASGYTFTHYYINWVQQRPGQGLEWIGWIFPESGSTYYSEKFKAKATLTVDKSSSTAYMLLSSLTSEDSAVYFCARGTGFFDYWGQGTTLTVSS
VL: QIVLTQSPAIMSASPGEKVTVTCSASSSVSYMFWYQQKPGFSPRLLIYDTSNLASGVPVRFSGSGSGTSYSLTISRMEAEDAATYYCQQWSSYPPTFGGGTKLEIK
notes: also called HLy91.184
In the case of B1, the binding result is reported as “no binding”.
